# According to US20140128569A1 (PANASONIC, published 2014):
# T1: polypeptide consisting of the amino acid sequence represented by SEQ ID NO: 01, contained in troponin I … (human)
# T1 peptide: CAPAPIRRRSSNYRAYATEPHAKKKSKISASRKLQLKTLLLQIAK
# B1: A2 antibody-displayed phage (scFv)
# scFv: DVVLTQSPLTLSVTIGQPASISCKSSQSLLDSDGKTYLNWLLQRPGQSPKRLIYLVSKLDSGVPDRFTGSGSGTDFTLKISRVEAEDLGVYYCWQGTHFPLTFGAGTKLEIKRGGGGSGGGGSGGGGSQLQLQQSGAELVRSGASVKLSCTASGFNIKDYYMNWVKQRPEQGLEWIGWIDPANGDTAYAPRFQVKATMTADKSSNTAYLQLSSLTSEDTAVYYCNADLPMDQWGQGTSVTVSS
# notes: 67, 68, 69 its parts; they must be translated; also called A2 antibody fragment; A2 scFv antibody fragment
# Target: T1, polypeptide consisting of the amino …
# Experiment: phage ELISA; average absorbance relative to example 2-1 (no heat); told of the conditions <=70 C and <=5 min, <=60 C and <=10 min, <=50 C and <=20 min, <=37 C and <=60 min
# Procedure: Pursuant to the step (a-8), the ELISA plate was prepared.
# A phage binding ratio was calculated from Table 10 on the basis of the following formula (I): […]
binder,measurement,value
B1,phage binding ratio,40%
